Experimental data taken from patent US20240116997A1 (BRIGHT PEAK THERAPEUTICS, published 2024).
Residue numbers refer to the chain shown, from its start. Names and notes keep the numbering of the source. Like-named read-outs stand apart in the source and are kept apart here.

What was measured:
Experiment in all cases: cell-based or functional assay
[1] = biological target: T1, IL-18 receptor (IL-18Rαβ) on cells (UniProt Q13478 19-541; O95256 20-599, limits assumed)
T1 sequence (looked up) 1: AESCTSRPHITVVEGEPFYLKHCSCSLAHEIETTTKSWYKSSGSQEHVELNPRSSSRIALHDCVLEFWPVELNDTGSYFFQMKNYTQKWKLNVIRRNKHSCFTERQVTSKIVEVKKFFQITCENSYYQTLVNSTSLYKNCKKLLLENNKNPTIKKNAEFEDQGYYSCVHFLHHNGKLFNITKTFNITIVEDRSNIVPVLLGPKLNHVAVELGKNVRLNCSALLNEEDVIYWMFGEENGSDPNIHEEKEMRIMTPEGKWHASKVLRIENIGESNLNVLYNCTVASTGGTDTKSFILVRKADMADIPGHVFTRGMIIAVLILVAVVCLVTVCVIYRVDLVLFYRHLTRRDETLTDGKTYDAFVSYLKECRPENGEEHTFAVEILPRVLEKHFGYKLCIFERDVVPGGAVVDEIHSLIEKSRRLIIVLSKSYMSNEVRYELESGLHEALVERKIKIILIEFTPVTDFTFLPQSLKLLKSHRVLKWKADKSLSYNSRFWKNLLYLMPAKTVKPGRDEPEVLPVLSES
T1 sequence (looked up) 2: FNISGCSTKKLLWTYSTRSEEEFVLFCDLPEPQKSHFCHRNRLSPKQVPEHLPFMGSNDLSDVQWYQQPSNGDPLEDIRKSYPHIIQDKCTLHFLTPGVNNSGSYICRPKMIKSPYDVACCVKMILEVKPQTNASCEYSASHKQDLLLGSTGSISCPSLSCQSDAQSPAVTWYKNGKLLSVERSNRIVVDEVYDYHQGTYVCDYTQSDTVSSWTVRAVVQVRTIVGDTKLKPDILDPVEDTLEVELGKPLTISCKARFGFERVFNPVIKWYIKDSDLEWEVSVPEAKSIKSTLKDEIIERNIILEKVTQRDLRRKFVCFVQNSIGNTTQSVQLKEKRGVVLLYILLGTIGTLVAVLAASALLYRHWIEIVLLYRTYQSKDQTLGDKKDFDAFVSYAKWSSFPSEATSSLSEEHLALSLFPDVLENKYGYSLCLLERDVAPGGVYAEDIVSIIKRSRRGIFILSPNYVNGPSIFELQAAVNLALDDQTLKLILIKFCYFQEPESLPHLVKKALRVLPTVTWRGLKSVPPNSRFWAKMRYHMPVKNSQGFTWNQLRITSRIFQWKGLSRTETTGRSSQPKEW

[2] = biological target: T1, IL-18 receptor (IL-18Rαβ) on cells; remark: listed apart in the source
[3] = biological target: T1, IL-18 receptor (IL-18Rαβ) on cells; remark: listed apart in the source
[4] = biological target: T1, IL-18 receptor (IL-18Rαβ) on cells; remark: listed apart in the source
[5] = biological target: T1, IL-18 receptor (IL-18Rαβ) on cells; remark: listed apart in the source

B1: C190 + MMP9 (ligand)
chain: MAAEPVEDNCINFVAMKFIDNTLYFIAEDDENLESDYFGKLKSKLSIIRNLNDQVLFIDQGNRPLFEDMTDSDARDNAPRTIFIISMYADSQPRGMAVAISVKCEKISTLSAENKIISFKEMNPPDNIKDTKSDIIFFQRSVPGHDNKMQFESSSYEGYFLAAEKERDLFKLILKKEDELGDRSIMFTVQNED
HEK-blue EC50 [1]: 198000 pM

B2: C191 (C086-PLGLAG linker-IL-18Rα D3-His6; SEQ ID NO: 76) (ligand)
chain: YFGKLKSKLSIIRNLNDQVLFIDQGNRPLFEDMTDSDARDNAPRTIFIISMYADSQPRGMAVAISVKCEKISTLSAENKIISFKEMNPPDNIKDTKSDIIFFQRSVPGHDNKMQFESSSYEGYFLAAEKERDLFKLILKKEDELGDRSIMFTVQNESGGPLGLAGGSNIVPVLLGPKLNHVAVELGKNVRLNCSALLNEEDVIYWMFGEENGSDPNIHEEKEMRIMTPEGKWHASKVLRIENIGESNLNVLYNCTVASTGGTDTKSFILVRKADHHHHHH
Fold potency loss vs C086 [1]: 48 fold
HEK-blue EC50 [1]: 2020 pM
EC50 (read off the curve), HEK-Blue IL18R reporter [2]: ~2 pM

B3: C086 (SEQ ID NO: 30; E6K, V11I, C38A, K53A, T63A, C76A, C127A) (ligand)
chain: YFGKLKSKLSIIRNLNDQVLFIDQGNRPLFEDMTDSDARDNAPRTIFIISMYADSQPRGMAVAISVKCEKISTLSAENKIISFKEMNPPDNIKDTKSDIIFFQRSVPGHDNKMQFESSSYEGYFLAAEKERDLFKLILKKEDELGDRSIMFTVQNED
EC50 (pM), HEK-Blue IL-18R reporter assay [3]: 0.034 pM
EC50 (nM), IFNγ induction, NK-92 cells [4]: 0.026 nM
HEK-blue EC50 [1]: 40 pM
EC50 (read off the curve), HEK-Blue IL18R reporter [2]: ~0.04 pM
EC50 (read off the curve), HEK-Blue IL18R reporter [5]: ~0.04 pM

B4: C127 (Propeptide-LinkerX-C086; SEQ ID NO: 69) (ligand)
chain: MAAEPVEDNCINFVAMKFIDNTLYFIAEDDENLESDSGGPGPAGMKGLPGSYFGKLKSKLSIIRNLNDQVLFIDQGNRPLFEDMTDSDARDNAPRTIFIISMYADSQPRGMAVAISVKCEKISTLSAENKIISFKEMNPPDNIKDTKSDIIFFQRSVPGHDNKMQFESSSYEGYFLAAEKERDLFKLILKKEDELGDRSIMFTVQNED
Fold potency loss vs C086 [1]: 7000 fold
HEK-blue EC50 [1]: 295000 pM

B5: C172 (C086-LinkerX-IL-18Rα D3-His6; SEQ ID NO: 73) (ligand)
chain: YFGKLKSKLSIIRNLNDQVLFIDQGNRPLFEDMTDSDARDNAPRTIFIISMYADSQPRGMAVAISVKCEKISTLSAENKIISFKEMNPPDNIKDTKSDIIFFQRSVPGHDNKMQFESSSYEGYFLAAEKERDLFKLILKKEDELGDRSIMFTVQNESGGPGPAGMKGLPGSNIVPVLLGPKLNHVAVELGKNVRLNCSALLNEEDVIYWMFGEENGSDPNIHEEKEMRIMTPEGKWHASKVLRIENIGESNLNVLYNCTVASTGGTDTKSFILVRKADHHHHHH
Fold potency loss vs C086 [1]: 26 fold
HEK-blue EC50 [1]: 1090 pM
EC50 (read off the curve), HEK-Blue IL18R reporter [2]: ~1 pM

B6: C189 (C086-LinkerX-IL-18Rα D3 without glycosylation sites-His6; SEQ ID NO: 75) (ligand)
chain: B5 chain with N196D, N215D, N257D
Fold potency loss vs C086 [1]: 10 fold
HEK-blue EC50 [1]: 430 pM
EC50 (read off the curve), HEK-Blue IL18R reporter [2]: ~0.4 pM
